Laboratory results as given in the supplement of paper PMC9112550, “Optimization of the antimicrobial peptide Bac7 by deep mutational scanning” (BMC Biology, 2022).

Test system: Escherichia coli TOP10
Test: shrunken log2 fold change of peptide-encoding DNA abundance (4.5 h post-induction vs induction); higher = less antimicrobial activity (less host growth inhibition)
Conditions: time post-induction: 4.5 h; library: site-saturation at positions 5, 18, 19, 20
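Note: peptides expressed intracellularly from a pBAD plasmid library in pooled LB shake-flask culture, induced with 0.3% L-arabinose, DNA abundance read by NGS, three biological replicates, DESeq2 with apeglm shrinkage.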

| Sequence | shrunken log2 fold change |
| --- | --- |
| RRIRQRPPRLPRPRPRPDWMPRP | 0.0723 |
| RRIRHRPPRLPRPRPRPFFCPRP | -0.16 |
| RRIRLRPPRLPRPRPRPAENPRP | 0.0583 |
| RRIRPRPPRLPRPRPRPRNDPRP | -0.479 |
| RRIRVRPPRLPRPRPRPRVCPRP | 0.165 |
| RRIRERPPRLPRPRPRPHYGPRP | -0.249 |
| RRIRRRPPRLPRPRPRPCQEPRP | 0.139 |
| RRIRMRPPRLPRPRPRPTTGPRP | 0.467 |
| RRIRRRPPRLPRPRPRPFFNPRP | -0.0577 |
| RRIRFRPPRLPRPRPRPDCAPRP | 0.0274 |
| RRIRWRPPRLPRPRPRPYVQPRP | -0.0608 |
| RRIRVRPPRLPRPRPRPHQEPRP | 0.113 |
| RRIRCRPPRLPRPRPRPHSFPRP | -0.404 |
| RRIRGRPPRLPRPRPRPWTTPRP | 0.00743 |
| RRIRTRPPRLPRPRPRPIASPRP | -0.0997 |
| RRIRIRPPRLPRPRPRPWMKPRP | -0.305 |
| RRIRIRPPRLPRPRPRPFLHPRP | -0.787 |
| RRIRDRPPRLPRPRPRPAWSPRP | 0.168 |
| RRIRIRPPRLPRPRPRPEYNPRP | 0.0781 |
| RRIRWRPPRLPRPRPRPMIVPRP | 2.28 |
| RRIRSRPPRLPRPRPRPFCGPRP | -0.201 |
| RRIRQRPPRLPRPRPRPQDPPRP | -0.239 |
| RRIRNRPPRLPRPRPRPKDPPRP | 0.0665 |
| RRIRHRPPRLPRPRPRPFLQPRP | 0.0325 |
| RRIRSRPPRLPRPRPRPLRFPRP | 0.926 |

| Sequence | shrunken log2 fold change |
| --- | --- |
| RRIRYRPPRLPRPRPRPHEMPRP | 2.66 |
| RRIRRRPPRLPRPRPRPAYVPRP | 0.0253 |
| RRIRLRPPRLPRPRPRPLVLPRP | -0.355 |
| RRIRKRPPRLPRPRPRPSHDPRP | -0.203 |
| RRIRQRPPRLPRPRPRPDIGPRP | -0.0932 |
| RRIRHRPPRLPRPRPRPHCIPRP | -0.199 |
| RRIRQRPPRLPRPRPRPMDSPRP | -0.01 |
| RRIRYRPPRLPRPRPRPYSNPRP | -0.127 |
| RRIRARPPRLPRPRPRPGGWPRP | 1.26 |
| RRIRERPPRLPRPRPRPVRHPRP | 0.131 |
| RRIRLRPPRLPRPRPRPTGNPRP | -0.044 |
| RRIRQRPPRLPRPRPRPGVAPRP | 0.207 |
| RRIRRRPPRLPRPRPRPYFNPRP | -0.2 |
| RRIRQRPPRLPRPRPRPSSSPRP | -1.39 |
| RRIRERPPRLPRPRPRPEPIPRP | -0.00736 |
| RRIRKRPPRLPRPRPRPLSWPRP | 0.826 |
| RRIRNRPPRLPRPRPRPARQPRP | 0.304 |
| RRIRGRPPRLPRPRPRPRTWPRP | 0.317 |
| RRIRLRPPRLPRPRPRPEYHPRP | 0.0779 |
| RRIRWRPPRLPRPRPRPNQQPRP | -0.0465 |
| RRIRCRPPRLPRPRPRPWCQPRP | -0.32 |
| RRIRCRPPRLPRPRPRPLNCPRP | -0.279 |
| RRIRARPPRLPRPRPRPNNLPRP | -0.561 |
| RRIRNRPPRLPRPRPRPPEVPRP | 0.0233 |
| RRIRFRPPRLPRPRPRPPIIPRP | 0.92 |

| Sequence | shrunken log2 fold change |
| --- | --- |
| RRIRGRPPRLPRPRPRPGREPRP | 0.217 |
| RRIRQRPPRLPRPRPRPMEYPRP | -0.479 |
| RRIRIRPPRLPRPRPRPKFKPRP | -0.0251 |
| RRIRVRPPRLPRPRPRPGNFPRP | -0.131 |
| RRIRGRPPRLPRPRPRPKDCPRP | 0.427 |
| RRIRSRPPRLPRPRPRPTRFPRP | 0.2 |
| RRIRYRPPRLPRPRPRPKNGPRP | 0.013 |
| RRIRFRPPRLPRPRPRPAVDPRP | 0.43 |
| RRIRGRPPRLPRPRPRPFEKPRP | 0.22 |
| RRIRKRPPRLPRPRPRPTWSPRP | 0.278 |
| RRIRHRPPRLPRPRPRPEDHPRP | 0.0753 |
| RRIRLRPPRLPRPRPRPQKAPRP | 0.000116 |
| RRIRERPPRLPRPRPRPLNVPRP | -0.0706 |
| RRIRWRPPRLPRPRPRPPEMPRP | 0.812 |
| RRIRFRPPRLPRPRPRPHYPPRP | -0.178 |
| RRIRQRPPRLPRPRPRPSPMPRP | 0.0696 |
| RRIRARPPRLPRPRPRPYRMPRP | 0.0568 |
| RRIRKRPPRLPRPRPRPMESPRP | 0.0143 |
| RRIRNRPPRLPRPRPRPYTNPRP | -0.424 |
| RRIRLRPPRLPRPRPRPMHVPRP | -0.0348 |
| RRIRCRPPRLPRPRPRPYFFPRP | -0.614 |
| RRIRNRPPRLPRPRPRPTSPPRP | 0.113 |
| RRIRDRPPRLPRPRPRPVLFPRP | 0.13 |
| RRIRKRPPRLPRPRPRPWDFPRP | 0.953 |
| RRIRERPPRLPRPRPRPRHTPRP | -0.187 |

| Sequence | shrunken log2 fold change |
| --- | --- |
| RRIRYRPPRLPRPRPRPGQQPRP | 0.0541 |
| RRIRKRPPRLPRPRPRPNNHPRP | -0.469 |
| RRIRPRPPRLPRPRPRPTPKPRP | 0.528 |
| RRIRMRPPRLPRPRPRPAGMPRP | 0.655 |
| RRIRRRPPRLPRPRPRPDPTPRP | 0.77 |
| RRIRIRPPRLPRPRPRPMYQPRP | -0.862 |
| RRIRDRPPRLPRPRPRPEMHPRP | 0.891 |
| RRIRTRPPRLPRPRPRPCLHPRP | -1.17 |
| RRIRKRPPRLPRPRPRPTAGPRP | 0.581 |
| RRIRHRPPRLPRPRPRPVEWPRP | 0.123 |
| RRIRRRPPRLPRPRPRPTQAPRP | -0.0717 |
| RRIRGRPPRLPRPRPRPFMQPRP | 0.165 |
| RRIRVRPPRLPRPRPRPWSCPRP | -0.155 |
| RRIRVRPPRLPRPRPRPMAAPRP | 0.287 |
| RRIRGRPPRLPRPRPRPGTIPRP | 0.00615 |
| RRIRNRPPRLPRPRPRPIPCPRP | -0.0228 |
| RRIRGRPPRLPRPRPRPYCWPRP | 0.0345 |
| RRIRIRPPRLPRPRPRPGYKPRP | -0.231 |
| RRIRARPPRLPRPRPRPIEEPRP | -0.0473 |
| RRIRVRPPRLPRPRPRPFDEPRP | -0.242 |
| RRIRQRPPRLPRPRPRPAAPPRP | 0.243 |
| RRIRIRPPRLPRPRPRPQSMPRP | -0.138 |
| RRIRQRPPRLPRPRPRPWHAPRP | -0.106 |
| RRIRSRPPRLPRPRPRPFLNPRP | -1.03 |
| RRIRRRPPRLPRPRPRPKHLPRP | 0.0709 |

| Sequence | shrunken log2 fold change |
| --- | --- |
| RRIRIRPPRLPRPRPRPNKTPRP | -0.125 |
| RRIRCRPPRLPRPRPRPYDTPRP | -0.308 |
| RRIRSRPPRLPRPRPRPWRKPRP | 0.0156 |
| RRIRSRPPRLPRPRPRPISCPRP | -0.0707 |
| RRIRTRPPRLPRPRPRPLNFPRP | -0.446 |
| RRIRCRPPRLPRPRPRPTNVPRP | -0.154 |
| RRIRCRPPRLPRPRPRPLQVPRP | -0.481 |
| RRIRERPPRLPRPRPRPPKWPRP | -0.176 |
| RRIRCRPPRLPRPRPRPQEVPRP | 0.144 |
| RRIRMRPPRLPRPRPRPFTNPRP | 3.34 |
| RRIRMRPPRLPRPRPRPGRYPRP | 0.0164 |
| RRIRCRPPRLPRPRPRPVERPRP | 0.0133 |
| RRIRCRPPRLPRPRPRPLVMPRP | -0.0664 |
| RRIRNRPPRLPRPRPRPHSDPRP | 0.0373 |
| RRIRNRPPRLPRPRPRPRYDPRP | -0.494 |
| RRIRWRPPRLPRPRPRPNCQPRP | -0.14 |
| RRIRMRPPRLPRPRPRPGMEPRP | 0.183 |
| RRIRKRPPRLPRPRPRPFPQPRP | 0.11 |
| RRIRDRPPRLPRPRPRPDIMPRP | 0.0348 |
| RRIRGRPPRLPRPRPRPQVPPRP | -0.0856 |
| RRIRARPPRLPRPRPRPTIQPRP | 0.0396 |
| RRIRRRPPRLPRPRPRPMHMPRP | 0.121 |
| RRIRNRPPRLPRPRPRPCNQPRP | 0.0223 |
| RRIRWRPPRLPRPRPRPAYHPRP | -0.361 |
| RRIRERPPRLPRPRPRPDYRPRP | -0.285 |

| Sequence | shrunken log2 fold change |
| --- | --- |
| RRIRKRPPRLPRPRPRPFFVPRP | 0.461 |
| RRIRVRPPRLPRPRPRPSFGPRP | -0.463 |
| RRIRVRPPRLPRPRPRPSPMPRP | -0.261 |
| RRIRPRPPRLPRPRPRPAGHPRP | 0.0291 |
| RRIRFRPPRLPRPRPRPHHQPRP | -0.963 |
| RRIRGRPPRLPRPRPRPDVYPRP | -0.0497 |
| RRIRMRPPRLPRPRPRPVPEPRP | 1.21 |
| RRIRNRPPRLPRPRPRPFAEPRP | -0.238 |
| RRIRHRPPRLPRPRPRPHHGPRP | -0.755 |
| RRIRGRPPRLPRPRPRPIGHPRP | 0.39 |
| RRIRPRPPRLPRPRPRPNRDPRP | -0.271 |
| RRIRARPPRLPRPRPRPGFMPRP | 0.14 |
| RRIRARPPRLPRPRPRPQDKPRP | -0.132 |
| RRIRKRPPRLPRPRPRPYQPPRP | -0.191 |
| RRIRGRPPRLPRPRPRPEDEPRP | 0.0631 |
| RRIRNRPPRLPRPRPRPNFLPRP | -0.0488 |
| RRIRTRPPRLPRPRPRPWHGPRP | -0.111 |
| RRIRKRPPRLPRPRPRPNIQPRP | -0.0271 |
| RRIRNRPPRLPRPRPRPERVPRP | 0.11 |
| RRIRDRPPRLPRPRPRPCMIPRP | 0.28 |
| RRIRFRPPRLPRPRPRPRPHPRP | 0.355 |
| RRIRPRPPRLPRPRPRPVAAPRP | 0.406 |
| RRIRLRPPRLPRPRPRPWDIPRP | -0.0445 |
| RRIRMRPPRLPRPRPRPNTIPRP | -0.3 |
| RRIRKRPPRLPRPRPRPNRGPRP | 0.0385 |
